This assay deals with DnaJB8ΔCTD (human). Description: cross-linking; HspA1A in 1× PBS pH 7.4 mixed with 40 μM DnaJB8, JD_(1–82), DnaJB8ΔCTD or DnaJB8F→S; 37 °C, ADH/DMTMM; XL–MS in triplicate.

Chain of human Hsp70 (HspA1A) (P0DMV8 whole entry): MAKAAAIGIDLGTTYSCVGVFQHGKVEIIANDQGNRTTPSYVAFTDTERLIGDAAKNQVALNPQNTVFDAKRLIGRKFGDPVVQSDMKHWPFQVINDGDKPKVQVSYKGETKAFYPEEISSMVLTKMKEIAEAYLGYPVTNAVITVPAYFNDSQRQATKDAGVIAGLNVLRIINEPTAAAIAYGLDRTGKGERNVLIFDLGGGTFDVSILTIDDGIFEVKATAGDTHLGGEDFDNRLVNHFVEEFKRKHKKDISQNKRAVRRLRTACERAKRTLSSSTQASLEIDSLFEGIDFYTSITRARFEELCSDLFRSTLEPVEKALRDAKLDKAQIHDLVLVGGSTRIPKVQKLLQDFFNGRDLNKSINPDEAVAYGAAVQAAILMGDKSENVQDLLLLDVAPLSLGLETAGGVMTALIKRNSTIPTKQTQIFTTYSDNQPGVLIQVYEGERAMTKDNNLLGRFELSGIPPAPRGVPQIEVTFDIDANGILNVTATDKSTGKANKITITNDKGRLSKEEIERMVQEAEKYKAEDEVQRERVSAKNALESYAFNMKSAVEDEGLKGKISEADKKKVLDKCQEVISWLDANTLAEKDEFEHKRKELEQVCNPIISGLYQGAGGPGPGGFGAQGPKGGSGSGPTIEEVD

In turn, “human Hsp70 (HspA1A) (from UniProt P0DMV8 1-641) (natural protein)” yielded a total cross-links between the JD and HspA1A across three XL–MS experiments of 14 cross-links.

For the origin of these results see paper PMC7878476.
